Assay results published in IntAct's records for PubMed 11583623.

B1: Serine protease HTRA2, mitochondrial (Homo sapiens), O43464 (parent)
chain: MAAPRAGRGAGWSLRAWRALGGIRWGRRPRLTPDLRALLTSGTSDPRARVTYGTPSLWARLSVGVTEPRACLTSGTPGPRAQLTAVTPDTRTREASENSGTRSRAWLAVALGAGGAVLLLLWGGGRGPPAVLAAVPSPPPASPRSQYNFIADVVEKTAPAVVYIEILDRHPFLGREVPISNGSGFVVAADGLIVTNAHVVADRRRVRVRLLSGDTYEAVVTAVDPVADIATLRIQTKEPLPTLPLGRSADVRQGEFVVAMGSPFALQNTITSGIVSSAQRPARDLGLPQTNVEYIQTDAAIDFGNSGGPLVNLDGEVIGVNTMKVTAGISFAIPSDRLREFLHRGEKKNSSSGISGSQRRYIGVMMLTLSPSILAELQLREPSFPDVQHGVLIHKVILGSPAHRAGLRPGDVILAIGEQMVQNAEDVYEAVRTQSQLAVQIRRGRETLTLYVTPEVTE

Variants of: B1
Settings: with xiap_human XIAP

Variant	effect of a mutation on the interaction
A134M	disrupting interaction
